Residue numbers refer to the chain shown, from its start.
B1: Mb(NRAS_24) with the FG loop of SEQ ID NO: 15 (designed binder)
chain: VSSVPTKLEVVAATPTSLLISWDAPAVTVDFYVITYGETGGYAWAYQEFKVPGSKSTATISGLSPGVDYTITVYASQVIGAIWKYYSPISINYRT
notes: length of the loop entry not visible
B2: Mb(NRAS_24) with the FG loop of SEQ ID NO: 53 (designed binder)
chain: B1 chain with S76Y, G80L, A81H
notes: as for B1
B3: Mb(NRAS_24) with the FG loop of SEQ ID NO: 30 (designed binder)
chain: B1 chain with S76Y, V78T, I79D
notes: as for B1
B4: Mb(NRAS_24) with the FG loop of SEQ ID NO: 17 (designed binder)
chain: B1 chain with S76Y, V78I, I79D
notes: as for B1
B5: Mb(NRAS_24) with the FG loop of SEQ ID NO: 42 (designed binder)
chain: B1 chain with S76Y, G80E, A81H
notes: as for B1
B6: Mb(NRAS_24) with the FG loop of SEQ ID NO: 67 (designed binder)
chain: B1 chain with S76Y, V78Y, I79Y
notes: as for B1
B7: Mb(NRAS_24) with the FG loop of SEQ ID NO: 32 (designed binder)
chain: B1 chain with S76Y, V78T, I79H
notes: as for B1
B8: Mb(NRAS_24) with the FG loop of SEQ ID NO: 60 (designed binder)
chain: B1 chain with S76Y, G80T, A81H
notes: as for B1
B9: Mb(NRAS_24) with the FG loop of SEQ ID NO: 50 (designed binder)
chain: B1 chain with S76Y, G80K, A81H
notes: as for B1
B10: Mb(NRAS_24) with the FG loop of SEQ ID NO: 19 (designed binder)
chain: B1 chain with S76Y, V78I, I79H
notes: as for B1
B11: Mb(NRAS_24) with the FG loop of SEQ ID NO: 58 (designed binder)
chain: B1 chain with S76Y, G80S, A81S
notes: as for B1
B12: Mb(NRAS_24) with the FG loop of SEQ ID NO: 29 (designed binder)
chain: B1 chain with S76Y, V78L, I79Y
notes: as for B1
B13: Mb(NRAS_24) with the FG loop of SEQ ID NO: 63 (designed binder)
chain: B1 chain with S76Y, I79S
notes: as for B1
B14: Mb(NRAS_24) with the FG loop of SEQ ID NO: 31 (designed binder)
chain: B1 chain with S76Y, V78T, I79E
notes: as for B1
B15: Mb(NRAS_24) with the FG loop of SEQ ID NO: 54 (designed binder)
chain: B1 chain with S76Y, G80R, A81H
notes: as for B1
B16: Mb(NRAS_24) with the FG loop of SEQ ID NO: 45 (designed binder)
chain: B1 chain with S76Y, W83C
notes: as for B1
B17: Mb(NRAS_24) with the FG loop of SEQ ID NO: 44 (designed binder)
chain: B1 chain with S76Y, G80E, A81Y
notes: as for B1
B18: Mb(NRAS_24) with the FG loop of SEQ ID NO: 33 (designed binder)
chain: B1 chain with S76Y, V78T, I79L
notes: as for B1
B19: Mb(NRAS_24) with the FG loop of SEQ ID NO: 47 (designed binder)
chain: B1 chain with S76Y, G80H, A81H
notes: as for B1
B20: Mb(NRAS_24) with the FG loop of SEQ ID NO: 59 (designed binder)
chain: B1 chain with S76Y, G80S, A81Y
notes: as for B1
B21: Mb(NRAS_24) with the FG loop of SEQ ID NO: 16 (designed binder)
chain: B1 chain with S76Y, Q77H
notes: as for B1
B22: Mb(NRAS_24) with the FG loop of SEQ ID NO: 23 (designed binder)
chain: B1 chain with S76Y, V78I, I79V
notes: as for B1
B23: Mb(NRAS_24) with the FG loop of SEQ ID NO: 38 (designed binder)
chain: B1 chain with S76Y, G80A, A81Y
notes: as for B1
B24: Mb(NRAS_24) with the FG loop of SEQ ID NO: 21 (designed binder)
chain: B1 chain with S76Y, V78I, I79L
notes: as for B1
B25: Mb(NRAS_24) with the FG loop of SEQ ID NO: 55 (designed binder)
chain: B1 chain with S76Y, G80R, A81S
notes: as for B1
B26: Mb(NRAS_24) with the FG loop of SEQ ID NO: 62 (designed binder)
chain: B1 chain with S76Y, G80Y, A81Y
notes: as for B1
B27: Mb(NRAS_24) with the FG loop of SEQ ID NO: 27 (designed binder)
chain: B1 chain with S76Y, V78L, I79H
notes: as for B1
B28: Mb(NRAS_24) with the FG loop of SEQ ID NO: 22 (designed binder)
chain: B1 chain with S76Y, V78I, I79R
notes: as for B1
B29: Mb(NRAS_24) with the FG loop of SEQ ID NO: 66 (designed binder)
chain: B1 chain with S76Y, V78Y, I79V
notes: as for B1
B30: Mb(NRAS_24) with the FG loop of SEQ ID NO: 61 (designed binder)
chain: B1 chain with S76Y, G80Y, A81H
notes: as for B1
B31: Mb(NRAS_24) with the FG loop of SEQ ID NO: 24 (designed binder)
chain: B1 chain with S76Y, V78I, I79Y
notes: as for B1
B32: Mb(NRAS_24) with the FG loop of SEQ ID NO: 57 (designed binder)
chain: B1 chain with S76Y, G80S, A81H
notes: as for B1
B33: Mb(NRAS_24) with the FG loop of SEQ ID NO: 48 (designed binder)
chain: B1 chain with S76Y, G80H, A81S
notes: as for B1
B34: Mb(NRAS_24) with the FG loop of SEQ ID NO: 28 (designed binder)
chain: B1 chain with S76Y, V78L, I79L
notes: as for B1
B35: Mb(NRAS_24) with the FG loop of SEQ ID NO: 41 (designed binder)
chain: B1 chain with S76Y, G80D, A81Y
notes: as for B1
B36: Mb(NRAS_24) with the FG loop of SEQ ID NO: 64 (designed binder)
chain: B1 chain with S76Y, V78Y, I79E
notes: as for B1
B37: Mb(NRAS_24) with the FG loop of SEQ ID NO: 37 (designed binder)
chain: B1 chain with S76Y, G80A, A81S
notes: as for B1
B38: Mb(NRAS_24) with the FG loop of SEQ ID NO: 34 (designed binder)
chain: B1 chain with S76Y, V78T, I79V
notes: as for B1
B39: Mb(NRAS_24) with the FG loop of SEQ ID NO: 26 (designed binder)
chain: B1 chain with S76Y, V78L, I79E
notes: as for B1
B40: Mb(NRAS_24) with the FG loop of SEQ ID NO: 56 (designed binder)
chain: B1 chain with S76Y, G80R, A81Y
notes: as for B1
B41: Mb(NRAS_24) with the FG loop of SEQ ID NO: 46 (designed binder)
chain: B1 chain with S76Y, I82L
notes: as for B1
B42: Mb(NRAS_24) with the FG loop of SEQ ID NO: 49 (designed binder)
chain: B1 chain with S76Y, G80H, A81Y
notes: as for B1
B43: Mb(NRAS_24) with the FG loop of SEQ ID NO: 43 (designed binder)
chain: B1 chain with S76Y, G80E, A81S
notes: as for B1
B44: Mb(NRAS_24) with the FG loop of SEQ ID NO: 35 (designed binder)
chain: B1 chain with S76Y, V78T, I79Y
notes: as for B1
B45: Mb(NRAS_24) with the FG loop of SEQ ID NO: 25 (designed binder)
chain: B1 chain with S76Y, V78L, I79D
notes: as for B1
B46: Mb(NRAS_24) with the FG loop of SEQ ID NO: 51 (designed binder)
chain: B1 chain with S76Y, G80K, A81S
notes: as for B1
B47: Mb(NRAS_24) with the FG loop of SEQ ID NO: 36 (designed binder)
chain: B1 chain with S76Y, G80A, A81H
notes: as for B1
B48: Mb(NRAS_24) with the FG loop of SEQ ID NO: 40 (designed binder)
chain: B1 chain with S76Y, G80D, A81S
notes: as for B1
B49: Mb(NRAS_24) with the FG loop of SEQ ID NO: 20 (designed binder)
chain: B1 chain with S76Y, V78I, I79K
notes: as for B1
B50: Mb(NRAS_24) with the FG loop of SEQ ID NO: 18 (designed binder)
chain: B1 chain with S76Y, V78I, I79E
notes: as for B1
B51: Mb(NRAS_24) with the FG loop of SEQ ID NO: 65 (designed binder)
chain: B1 chain with S76Y, V78Y, I79H
notes: as for B1
B52: Mb(NRAS_24) with the FG loop of SEQ ID NO: 52 (designed binder)
chain: B1 chain with S76Y, G80K, A81Y
notes: as for B1
B53: Mb(NRAS_24) with the FG loop of SEQ ID NO: 39 (designed binder)
chain: B1 chain with S76Y, G80D, A81H
notes: as for B1

target: T1, NRAS (human, UniProt P01111 1-174, limits assumed); experiment: yeast display, cells sorted for binding to NRAS (WT);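 also: Yeast-displayed monobody variants with one or two residue substitutions, monobody sequences read from cells recovered by sorting for binding to wild-type NRAS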
T1 construct: also called Neuroblastoma-RAS; NRAS (WT)

Binding result, binds:
B1
B2
B3
B4
B5
B6
B7
B8
B9
B10
B11
B12
B13
B14
B15
B16
B17
B18
B19
B20
B21
B22
B23
B24
B25
B26
B27
B28
B29
B30
B31
B32
B33
B34
B35
B36
B37
B38
B39
B40
B41
B42
B43
B44
B45
B46
B47
B48
B49
B50
B51
B52
B53
